Assay results taken from publication doi:10.1101/557751.

Legend:
Assay in all cases: EMSA
[1] = biological target: T1, CsiR (Pseudomonas putida (KT2440?)) (UniProt Q88IU1)
T1 sequence: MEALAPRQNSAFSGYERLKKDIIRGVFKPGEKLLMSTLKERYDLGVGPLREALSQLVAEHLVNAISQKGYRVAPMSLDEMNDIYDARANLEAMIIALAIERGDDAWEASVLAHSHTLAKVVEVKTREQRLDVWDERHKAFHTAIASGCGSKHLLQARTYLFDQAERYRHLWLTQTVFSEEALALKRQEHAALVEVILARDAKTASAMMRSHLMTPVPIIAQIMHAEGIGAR

[2] = biological target: T2, GcdR (Pseudomonas putida (KT2440?)) (UniProt Q88RH3)
T2 sequence: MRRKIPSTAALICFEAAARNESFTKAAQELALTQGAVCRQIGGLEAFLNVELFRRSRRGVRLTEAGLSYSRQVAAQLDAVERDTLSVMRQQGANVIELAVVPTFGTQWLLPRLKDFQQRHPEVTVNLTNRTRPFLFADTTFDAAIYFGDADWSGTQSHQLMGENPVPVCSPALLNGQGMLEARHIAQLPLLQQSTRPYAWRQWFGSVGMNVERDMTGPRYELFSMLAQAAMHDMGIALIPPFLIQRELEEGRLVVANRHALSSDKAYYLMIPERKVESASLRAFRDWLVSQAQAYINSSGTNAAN

[3] = test system: CsiR (Pseudomonas putida (KT2440?))
[4] = test system: GcdR (Pseudomonas putida (KT2440?))

Substance “AGTTCGATCTGCGTAAAGGCGTTCATGGCAGTGTCCTGGCTAAAAAAGTAGATGGCGCCGTCCGGTCATGACCTGGATCAGTGCGGGCGAGGTAAAAATATCGCCACTAACTGAAAATGTCTACATTTTTATTTTTCAACGACACTACTCGTGTTTGTCCATTGTTTTTCGTCAGCAGAGGGTTTCGGTATGATCGGCAAAACGTTTTGAGGAACAGGATCTTGGAAGCGCTCGCCCCCCGACAAAACTCAGCATTCAGCGGG (double strand) [csiR-csiD intergenic probe]” has a Kd [1] of 30 nM.
“CGGGTCGATCCAGTTGAAACTTGCTTTACCGACCATGAGCGAATCCTCGAAATAGGGGTCAGTTTCTTGTGCCTTTGAGCCTAGGCCTGATCGGCTGCGGCGACAAACGAGGATTGCGCACCGATTAGTGATATTTTGTCACTCCGTAAATCGGCAAAACGCCTTATTGACAGCCTTACAAGTGAGGTTGACGTACATGC (double strand) [gcdR intergenic probe]” showed a Kd [2] of 62.5 nM.
csiR-csiD intergenic probe gave a Kd [3] of 30 nM.
For gcdR intergenic probe, the Kd [4] was 62.5 nM.
